Reference: patent US20240261333A1 (published 2024)

Biological target: T1, EIF5B (human, UniProt O60841 1-1220)
T1 construct: also called NP_056988.3
T1 sequence (looked up): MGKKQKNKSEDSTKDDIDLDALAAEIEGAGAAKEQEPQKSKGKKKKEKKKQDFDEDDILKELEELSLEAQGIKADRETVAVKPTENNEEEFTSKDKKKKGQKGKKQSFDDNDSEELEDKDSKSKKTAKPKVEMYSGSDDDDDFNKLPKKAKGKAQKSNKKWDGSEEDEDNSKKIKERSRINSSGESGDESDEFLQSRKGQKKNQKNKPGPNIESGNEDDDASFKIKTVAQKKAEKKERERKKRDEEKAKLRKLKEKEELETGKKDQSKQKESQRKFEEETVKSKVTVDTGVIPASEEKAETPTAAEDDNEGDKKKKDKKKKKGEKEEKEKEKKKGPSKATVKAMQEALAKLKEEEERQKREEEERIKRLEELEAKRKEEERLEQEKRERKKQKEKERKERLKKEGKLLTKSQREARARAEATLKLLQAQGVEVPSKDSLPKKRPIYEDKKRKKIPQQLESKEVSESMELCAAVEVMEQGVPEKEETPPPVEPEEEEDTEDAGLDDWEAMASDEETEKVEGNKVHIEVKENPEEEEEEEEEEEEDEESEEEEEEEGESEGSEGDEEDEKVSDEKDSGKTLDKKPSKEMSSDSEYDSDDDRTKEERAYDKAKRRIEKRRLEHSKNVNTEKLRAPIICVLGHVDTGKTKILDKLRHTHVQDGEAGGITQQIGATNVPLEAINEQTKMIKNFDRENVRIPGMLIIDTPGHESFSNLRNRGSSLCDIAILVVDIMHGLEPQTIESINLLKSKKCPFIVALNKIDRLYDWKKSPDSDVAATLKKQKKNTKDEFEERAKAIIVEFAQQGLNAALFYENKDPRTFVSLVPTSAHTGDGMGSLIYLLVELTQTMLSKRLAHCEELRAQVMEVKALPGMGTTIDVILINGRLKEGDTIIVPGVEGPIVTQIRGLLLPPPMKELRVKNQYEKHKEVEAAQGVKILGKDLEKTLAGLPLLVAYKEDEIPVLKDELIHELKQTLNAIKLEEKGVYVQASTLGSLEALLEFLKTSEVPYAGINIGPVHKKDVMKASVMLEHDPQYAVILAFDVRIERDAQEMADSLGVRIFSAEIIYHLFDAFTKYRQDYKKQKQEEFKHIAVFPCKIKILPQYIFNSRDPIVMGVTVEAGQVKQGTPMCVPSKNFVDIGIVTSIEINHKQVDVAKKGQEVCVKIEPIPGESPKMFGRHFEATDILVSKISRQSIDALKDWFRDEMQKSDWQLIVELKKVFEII
Assay: co-IP, anti-FLAG, lysate of cells with N-FLAG B3GNT2; mass spectrometry

co-IP mass spectrometry count: 0
B1: N-terminal FLAG tagged B3GNT2 (enzyme, human, UniProt Q9NY97 1-397, looked up)
chain: MSVGRRRIKLLGILMMANVFIYFIMEVSKSSSQEKNGKGEVIIPKEKFWKISTPPEAYWNREQEKLNRQYNPILSMLTNQTGEAGRLSNISHLNYCEPDLRVTSVVTGFNNLPDRFKDFLLYLRCRNYSLLIDQPDKCAKKPFLLLAIKSLTPHFARRQAIRESWGQESNAGNQTVVRVFLLGQTPPEDNHPDLSDMLKFESEKHQDILMWNYRDTFFNLSLKEVLFLRWVSTSCPDTEFVFKGDDDVFVNTHHILNYLNSLSKTKAKDLFIGDVIHNAGPHRDKKLKYYIPEVVYSGLYPPYAGGGGFLYSGHLALRLYHITDQVHLYPIDDVYTGMCLQKLGLVPEKHKGFRTFDIEEKNKNNICSYVDLMLVHSRKPQEMIDIWSQLQSAHLKC
notes: Overexpressed in cells and pulled down from the lysate with mouse anti-FLAG antibody; also called N-FLAG B3GNT2; N-term FLAG; not shown: N-terminal FLAG tag
